The values below come from patent publication US20260053913A1 (BIOENTRE, published 2026).

Test [1] addresses human CTLA4 (cytotoxic T-lymphocyte-associated antigen-4), isoform CTLA4-TM (human) (UniProt P16410). Kind of test: cell-based or functional assay.
The target of test [2] is T1, human CTLA4 (cytotoxic T-lymphocyte-associated antigen-4), isoform CTLA4-TM (human, UniProt P16410 36-223).
T1 sequence: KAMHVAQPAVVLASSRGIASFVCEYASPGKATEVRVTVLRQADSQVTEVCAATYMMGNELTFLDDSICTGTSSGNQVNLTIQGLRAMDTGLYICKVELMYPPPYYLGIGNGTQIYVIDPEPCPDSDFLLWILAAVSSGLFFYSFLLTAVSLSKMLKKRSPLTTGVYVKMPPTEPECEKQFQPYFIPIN
Kind of test: cell-based or functional assay.

B1: L3D10 (antibody, from another filing, V domains shown)
VH: QVQLKESGPGLVAPSQSLSITCTVSGFSLTSYGLSWVRQPPGKGLEWLGVIWYDGNTNFHSALISRLTISKDNSKSQVFLELNSLQTDDTATYYCAKTEGHYYGSNYGYYALDYWGQGTSVTVSS
VL: DIQMTQSPASLSVSVGETVTITCRASENIYSNLAWYQQKQGKSPQLLVYAATNLADGVPSRFSGSGSGTQYSLKINSLQSEDFGTYFCQHLWGTPYTFGGGTKLEIKR
Regarding B1, in test [1], the maximal activity (ratio RLU), αCTLA 4 functional blockade assay came out at 15 ratio RLU and the plateau of the titration curve (ratio RLU over background) at 200 nM or greater was in the range of 15 to 20 ratio RLU.

B2: BNI3, mouse IgG2a anti-human CTLA4 (CD152) antibody from BioXcell (antibody, V domains shown)
VH: DVQLQESGPGLVKPSQSLSLTCSVTGYSITSGYVWNWIRQFPGNKLEWMGYISHDGNTNYNPSLKNRISITRDTSKNQFFLKLNSVTTEDSATYYCTRNYGYGGTMDYWGQGTAVSVSS
VL: DIVMTQSQKFMSTSVGDRVSVTCKASQNVGTYVAWYEQKLGQSPKALIFSASYRYTGVPDRFTGSGSGTDFTLTISNVQSEDLAEYFCQQYDSYPLTFGGGTKLEIKR
With B2, in test [2], the “biological activity relative to Ipilimumab, Promega anti-CTLA 4 and anti-CTLA 4 + anti-PD1 functional blockade assays” value was < 60 % of Ipilimumab activity; the “half maximum activity concentration, αCTLA 4 functional blockade assay” value is roughly 50 nM.

B3: BioE2032 (121 HuIgG1) (antibody, V domains shown)
VH: QVQLQESGPGLVKPSQTLSLTCTVSGFSLTSYGVYWVRQPPGKGLEWLGVIWAGGTTNYNSALMSRLTISKDTSKNQVSLKLSSVTAADTAVYYCARGPPHAMMKRGYAMDYWGQGTLVTVSS
VL: DIQMTQSPSSLSASVGDRVTITCSATSSITYMSWYQQKPGKAPKLLIYDTSNLASGVPSRFSGSGSGTDYTLTISSLQPEDFATYYCQQWSSYPLTFGGGTKLEIK
As to B3, the “half maximum activity concentration, αCTLA 4 functional blockade assay” value in test [2] was roughly 50 nM.
